Assay results from the supplement of paper PMC7125110.
± gives the standard error. For some assays here: Fewer inactive variants are shown than the library holds.

B1: glmS ribozyme (parent)
chain: AUAAAAGCGCCAGAACUACAGAAAUGUAGUUGACGAGGAGGAGGUUUAUCGAAUUUUCGGCGGAUGCCUCCAAA

What was measured:
Details in all cases: with glucosamine-6-phosphate
glucosamine-6-phosphate [1] = variants of: B1; experiment: kcat; higher = faster cleavage; RNA array
Summary of the method: (§1)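 Weighted Michaelis–Menten fits across concentrations supplied kcat and KM, based on kobs from one- or two-exponential decay fits to normalised per-tile medians. The data came from barcoded ribozyme variants transcribed in situ by E. coli RNA polymerase on sequenced MiSeq chips and tracked at 37 °C by a hybridised Cy3 probe. Glucosamine-6-phosphate (40 μM to 10 mM) in HEPES/KCl/Mg(OAc)2 buffer was flowed in.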

glucosamine-6-phosphate [2] = variants of: B1; experiment: KM; higher = weaker cofactor use; RNA array
Summary of the method: as §1

glucosamine-6-phosphate [3] = variants of: B1; experiment: self-cleavage kobs at 160 uM GlcN6P; higher = faster cleavage; RNA array
Summary of the method: as §1

glucosamine-6-phosphate [4] = variants of: B1; experiment: self-cleavage kobs at 640 uM GlcN6P; higher = faster cleavage; RNA array
Summary of the method: as §1

glucosamine-6-phosphate [5] = variants of: B1; experiment: self-cleavage kobs at 2500 uM GlcN6P; higher = faster cleavage; RNA array
Summary of the method: as §1

glucosamine-6-phosphate [6] = variants of: B1; experiment: self-cleavage kobs at 10000 uM GlcN6P; higher = faster cleavage; RNA array
Summary of the method: as §1

glucosamine-6-phosphate [7] = variants of: B1; experiment: self-cleavage kobs at 40 uM GlcN6P; higher = faster cleavage; RNA array
Summary of the method: as §1

Variant | kcat (glucosamine-6-phosphate [1]) [s⁻¹] | KM (glucosamine-6-phosphate [2]) [µM] | self-cleavage kobs at 160 uM GlcN6P (glucosamine-6-phosphate [3]) [s⁻¹] | self-cleavage kobs at 640 uM GlcN6P (glucosamine-6-phosphate [4]) [s⁻¹] | self-cleavage kobs at 2500 uM GlcN6P (glucosamine-6-phosphate [5]) [s⁻¹] | self-cleavage kobs at 10000 uM GlcN6P (glucosamine-6-phosphate [6]) [s⁻¹] | self-cleavage kobs at 40 uM GlcN6P (glucosamine-6-phosphate [7]) [s⁻¹]
C11U U55C | 0.00286 ± 0.00063 | 6220 ± 1800 | 6.7e-05 ± 1.2e-05 | 0.00029 ± 4.1e-05 | 0.000776 ± 0.0001 | 0.00181 ± 0.0003 | –
C11U U55A | 0.00167 ± 0.0004 | 1260 ± 470 | 0.000177 ± 3.7e-05 | 0.000478 ± 9.1e-05 | 0.000891 ± 0.0002 | 0.0018 ± 0.00026 | 6.97e-05 ± 1.2e-05
C11U U55G | 0.0019 ± 0.00039 | 1700 ± 660 | 0.000214 ± 4.9e-05 | 0.000351 ± 7.6e-05 | 0.00137 ± 0.00026 | 0.00164 ± 0.00016 | 5.89e-05 ± 1.1e-05
A12G G29U C67G | 7.88e-05 ± 1.7e-05 | – | – | – | – | 6.04e-05 ± 1.4e-05 | –
G13A A64G | 0.0011 ± 0.0002 | 6920 ± 2200 | – | 0.000113 ± 2.2e-05 | 0.000246 ± 5e-05 | 0.000665 ± 6.7e-05 | –
A12C A52U | 0.000397 ± 5.1e-05 | 2490 ± 570 | – | 8.66e-05 ± 8.4e-06 | 0.000188 ± 1.7e-05 | 0.000329 ± 3.4e-05 | –
A12C U49C | < 1e-05 | – | – | – | – | < 1e-05 | –
A12U A15U | 0.0118 ± 0.0023 | 1190 ± 320 | 0.0011 ± 0.00016 | 0.00509 ± 0.00065 | 0.00905 ± 0.0015 | 0.00986 ± 0.0013 | 0.000433 ± 4.6e-05
G13A U45G | 8.96e-05 ± 7.9e-06 | 4310 ± 840 | – | – | 3.13e-05 ± 8.3e-06 | 6.32e-05 ± 1e-05 | –
A12C C58A | 0.000734 ± 2.1e-05 | – | – | – | 0.000104 ± 1.8e-05 | 0.000291 ± 4.6e-05 | –
A12C C58U | 0.000159 ± 1.6e-05 | 6360 ± 1200 | – | – | 4.66e-05 ± 9.5e-06 | 9.68e-05 ± 1.2e-05 | –
A12G A42U | 4.92e-05 ± 2.6e-06 | – | – | – | – | 1.63e-05 ± 6.6e-06 | –
A12G C68U | 0.000271 ± 1.9e-05 | 2400 ± 390 | 3.11e-05 ± 1.2e-05 | 5.55e-05 ± 6.8e-06 | 0.000137 ± 1.5e-05 | 0.000219 ± 1.5e-05 | –
A12G G63C | < 1e-05 | – | < 1e-05 | – | – | < 1e-05 | –
A12U G40C | 0.00584 ± 0.0009 | 1420 ± 310 | 0.000567 ± 9.5e-05 | 0.0014 ± 0.00029 | 0.00529 ± 0.0011 | 0.00509 ± 0.00057 | 0.000175 ± 2e-05
A12C G66U | 0.00165 ± 0.00058 | 1990 ± 990 | 9.73e-05 ± 1.3e-05 | 0.000586 ± 6.9e-05 | 0.000865 ± 0.00014 | 0.00133 ± 0.0002 | 5.83e-05 ± 1.3e-05
A12U A42C | 2.16e-05 ± 2.9e-06 | – | – | – | 1.75e-05 ± 7.1e-06 | 1.89e-05 ± 8.5e-06 | < 1e-05
A12C G66C C70A | 8.64e-05 ± 2.7e-05 | – | 0.000157 ± 5.7e-05 | 3.9e-05 ± 1.8e-05 | 0.00011 ± 3.2e-05 | 8.13e-05 ± 1.6e-05 | –
A12U U57G | 0.000297 ± 3.7e-05 | 2260 ± 590 | 4.4e-05 ± 2.1e-05 | 6.1e-05 ± 1.2e-05 | 0.000162 ± 2.6e-05 | 0.000241 ± 3e-05 | –
A12U U57C | 0.00174 ± 0.00086 | – | 6.12e-05 ± 2.3e-05 | 0.000217 ± 3.9e-05 | 0.000638 ± 0.00014 | 0.00126 ± 0.00038 | 6.27e-05 ± 2.3e-05
A12G G13C | 2.64e-05 ± 6.5e-07 | 2100 ± 230 | < 1e-05 | – | – | – | < 1e-05
A12U A48U | 0.0014 ± 0.00052 | – | 7.62e-05 ± 1.5e-05 | 0.00024 ± 3.3e-05 | 0.000479 ± 6.9e-05 | 0.00139 ± 0.00023 | –
A12U A14U | 0.00461 ± 0.0012 | 2000 ± 750 | 0.000269 ± 5.6e-05 | 0.00119 ± 0.00018 | 0.00188 ± 0.00031 | 0.00449 ± 0.00046 | 0.00011 ± 1.2e-05
A12U A14C | 0.00505 ± 0.0013 | 1630 ± 560 | 0.000429 ± 6.9e-05 | 0.00117 ± 0.00016 | 0.00261 ± 0.00038 | 0.00546 ± 0.00066 | 0.000142 ± 1.3e-05
A12U U46C | 0.0152 ± 0.0021 | 2700 ± 520 | 0.00106 ± 0.00025 | 0.00223 ± 0.00068 | 0.00688 ± 0.0018 | 0.0123 ± 0.0017 | 0.000227 ± 3.3e-05
A12U | 0.0933 ± 0.014 | 1340 ± 230 | 0.00899 ± 0.00054 | 0.0283 ± 0.0012 | 0.049 ± 0.0042 | 0.0963 ± 0.0052 | 0.00275 ± 4.9e-05
A12G | 0.00143 ± 6.1e-05 | 4240 ± 270 | 5.14e-05 ± 1.6e-06 | 0.000189 ± 3.5e-06 | 0.000587 ± 2.8e-05 | 0.001 ± 1.6e-05 | 1.01e-05 ± 1.5e-06
A12C | 0.042 ± 0.0066 | 2170 ± 410 | 0.00261 ± 0.00016 | 0.00858 ± 0.00027 | 0.0195 ± 0.00085 | 0.0393 ± 0.0013 | 0.000794 ± 1.3e-05
